Results as given in article PMC7107572.

How the values were obtained:
[1] = basal ECAR, Seahorse XF24; conditions: glycan lost; control: PKM2wt cells
[2] = exogenous PKM2 protein level in xenograft tumors; conditions: glycan lost; control: PKM2wt tumors
[3] = residual medium glucose normalised to cell number; conditions: glycan lost; control: PKM2wt cells
[4] = IP of HN-PKM2, anti-acetyl-lysine blot, 25 mM glucose; conditions: glycan lost; control: PKM2wt
[5] = LDH-coupled pyruvate kinase assay, PEP titration, HeLa; conditions: glycan lost; control: PKM2wt
[6] = sucrose density gradient ultracentrifugation, anti-Flag blot; conditions: glycan lost; control: PKM2wt
[7] = pyruvate kinase activity, HeLa lysate; conditions: glycan gained; control: vector and OGTcd

Substance	other: glycolytic flux [1]	expression_or_secretion [2]	other: cellular glucose consumption [3]	other: OGA-induced lysine acetylation [4]	enzymatic_activity [5]	oligomerisation [6]	enzymatic_activity [7]
pyruvate kinase M2 (PKM2): S362A	decreases	no change	decreases	no change	increases	increases	
pyruvate kinase M2 (PKM2): T365A	decreases	no change	decreases		increases	increases	
pyruvate kinase M2 (PKM2): OGTwt overexpression							decreases
